The labels stand for the following.
T1: human GIP receptor (human, UniProt P48546 22-466)
T1 sequence (looked up): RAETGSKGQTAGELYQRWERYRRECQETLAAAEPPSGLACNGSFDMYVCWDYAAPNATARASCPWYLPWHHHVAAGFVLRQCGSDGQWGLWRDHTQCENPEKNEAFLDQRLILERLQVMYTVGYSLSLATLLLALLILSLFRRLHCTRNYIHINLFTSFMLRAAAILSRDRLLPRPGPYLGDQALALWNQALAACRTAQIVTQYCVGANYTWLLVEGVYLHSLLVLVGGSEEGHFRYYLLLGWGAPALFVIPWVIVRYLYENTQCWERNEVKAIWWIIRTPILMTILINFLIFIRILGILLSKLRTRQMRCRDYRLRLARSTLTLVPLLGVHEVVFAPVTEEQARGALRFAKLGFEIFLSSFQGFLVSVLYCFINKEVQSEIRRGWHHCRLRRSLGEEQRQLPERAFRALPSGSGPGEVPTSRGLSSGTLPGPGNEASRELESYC

B1: P001 (peptide)
peptide: YXEGTXTSDYXIXLDKQAQAEFVKWLLKGGPSSGAPPPSK
modifications: Aib at 2, αMePhe at 6, Aib at 11, Aib at 13; C-terminal primary amide
B2: P008 (peptide)
peptide: B1 peptide
modifications: Aib at 2, αMePhe at 6, Aib at 11, Aib at 13; K at position 28 conjugated at the ε-amino with ([2-(2-amino-ethoxy)-ethoxy]-acetyl)2-(γ-Glu)1-CO-(CH2)16-CO2H; C-terminal primary amide
B3: P007 (peptide)
peptide: B1 peptide
modifications: Aib at 2, αMePhe at 6, Aib at 11, Aib at 13; K at position 24 conjugated at the ε-amino with ([2-(2-amino-ethoxy)-ethoxy]-acetyl)2-(γ-Glu)1-CO-(CH2)16-CO2H; C-terminal primary amide
B4: P013 (peptide)
peptide: B1 peptide
modifications: Aib at 2, αMePhe at 6, Aib at 11, Aib at 13; K at position 24 conjugated at the ε-amino with ([2-(2-amino-ethoxy)-ethoxy]-acetyl)2-(γ-Glu)1-CO-(CH2)18-CO2H; C-terminal primary amide

In the first experiment the target is T2, human GLP-1 receptor (human, UniProt P43220 24-463). Put plainly: cell-based or functional assay.
Take B1: the “EC50 value (ratio of the EC50 of the endogenous ligand GLP-1 to the EC50 of the test compound), cAMP reporter gene (luciferase) assay in HEK293/CRE/GLP-1R cells” value was found to be 52.1 ratio.
The same measure, in the same setting: the result for B2 reads 4.79 ratio; that for B3, 5.84 ratio; that for B4, 2.41 ratio.

The next experiment concerns the target T1, human GIP receptor. Put plainly: cell-based or functional assay.
In the case of B1, the “EC50 value (ratio of the EC50 of the endogenous ligand GIP to the EC50 of the test compound), LANCE Ultra cAMP assay in HEK293/GIPR cells” value stood at 7.13 ratio.
B2: the “EC50 value (ratio of the EC50 of the endogenous ligand GIP to the EC50 of the test compound), LANCE Ultra cAMP assay in HEK293/GIPR cells” value is 1.67 ratio.
Consider B3, for which the “EC50 value (ratio of the EC50 of the endogenous ligand GIP to the EC50 of the test compound), LANCE Ultra cAMP assay in HEK293/GIPR cells” value came out at 1.15 ratio.
As to B4, the “EC50 value (ratio of the EC50 of the endogenous ligand GIP to the EC50 of the test compound), LANCE Ultra cAMP assay in HEK293/GIPR cells” value was found to be 0.86 ratio.

Another experiment deals with T1, human GIP receptor. Put plainly: radioligand competition: displacement of [125I]GIP from membranes of cells over-expressing human GIPR; ratio = Ki of GIP / Ki of compound. On the procedure: 98 μL of membrane dissolved in binding buffer (50 mM HEPES pH 7.4, 5 mM MgCl₂, 1 mM CaCl₂, 0.1% BSA, 0.005% Tween-20) is transferred to a 96-well test plate (15 μg/well). The compound is serially diluted in DMSO, and then, 2 μL of the diluted compounds or 100% DMSO is added to the test plate containing the membrane solution. […] The test plate is left at room temperature for 90 minutes. […] After drying at 37° C. for 2 hours, 50 μL of scintillation fluid is added to each well. The plate is read with a MicroBeta2 scintillation counter after sealing and settling for at least 1 hour so as to determine the membrane bound radioligand level.
For the molecule B1, the Ki ratio was 8.82 ratio.
Take B2: the Ki ratio came out at 0.16 ratio.
With B4, the Ki ratio amounted to 0.14 ratio.

The target in a further experiment is T2, human GLP-1 receptor. Kind of experiment: radioligand competition: displacement of [125I]GLP-1 from membranes of cells over-expressing human GLP-1R; ratio = Ki of GLP-1 / Ki of compound. How it is done: 89 μL of membrane dissolved in binding buffer (50 mM Hepes, pH 7.4, 5 mM MgCl₂, 5 mM EDTA, 0.005% TWEEN, 0.005% HSA) is transferred to a 96-well test plate (5 μg/well). The compound is serially diluted in DMSO, and then, 1 μL of the diluted compound or 100% DMSO is added to the test plate containing the membrane solution. 10 μL of [¹²⁵I] […] The test plate is left at room temperature for 90 minutes. The membrane complexes are harvested into a GF/B plate pre-coated with 0.5% PEI by using a Cell Harvester, and washed for 3 times with 500 μL of pre-cooled elution buffer (50 mM Hepes, pH 7.4, 500 mM NaCl) at 4° C. After drying at 37° C. for 2 hours, 50 μL of scintillation fluid is added to each well. The plate is read with a MicroBeta2 scintillation counter after sealing and settling for at least 1 hour so as to determine the membrane bound radioligand level.
On the technique in general: In a radioligand displacement assay an active substance lowers the binding of a labelled ligand.
As to B1, the Ki ratio amounted to 19.5 ratio.
With B2, the Ki ratio was 1.09 ratio.
For the molecule B3, the Ki ratio amounted to 0.47 ratio.
On the same count and under the same terms, with B4 the figure was 0.28 ratio.

The values are drawn from patent publication US20240325549A1 (HANGZHOU ZHONGMEIHUADONG PHARMACEUTICAL, published 2024).
